The text below walks through data of PMC5031806.

The assay concerns the target meMICU1^97-476 (human MICU1 residues 97-476, methylated in vitro by recombinant PRMT1) (human) (UniProt Q9BPX6). In words: ITC; IML2^UCP2 (500 μM, syringe) titrated into MICU1 (40 μM, cell); VP-ITC, 25 °C; 20 mM Tris pH 7.0, 500 mM NaCl, 50 mM Arg, 2 mM BME; single site-binding model.
Sequence of UniProt Q9BPX6 (Q9BPX6 97-476): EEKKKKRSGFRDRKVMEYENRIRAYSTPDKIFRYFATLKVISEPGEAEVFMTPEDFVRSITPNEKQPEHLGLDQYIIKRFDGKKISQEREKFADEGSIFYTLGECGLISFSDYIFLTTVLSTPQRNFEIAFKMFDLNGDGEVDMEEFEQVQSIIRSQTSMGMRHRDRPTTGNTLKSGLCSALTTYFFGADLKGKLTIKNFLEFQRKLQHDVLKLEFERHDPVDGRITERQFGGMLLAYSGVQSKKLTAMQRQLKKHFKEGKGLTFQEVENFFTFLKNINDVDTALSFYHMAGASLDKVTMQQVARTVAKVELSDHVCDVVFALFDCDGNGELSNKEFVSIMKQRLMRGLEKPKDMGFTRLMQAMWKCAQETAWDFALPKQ

With “IML2^UCP2 (chemically synthetized intermembrane loop 2 of UCP2) (from UniProt P55851 147-171) (peptide)”, the Kd stood at 24.6 µM.

As a reminder, the Kd is the equilibrium constant for the complex coming apart.
